Measurements from article PMC9445180, “Allosteric inhibition of HTRA1 activity by a conformational lock mechanism to treat age-related macular degeneration” (Nature Communications, 2022).
Changes are numbered by the printed parent chain. Names and notes keep the numbering of the source. Blank lines part the entries; values can stand above or below the binder they belong to.

How the values were obtained:
[1] = target: the molecule itself; test: SEC; HTRA proteins and their LoopA deletion mutants alone; Superdex 200 Increase 3.2/300; 200 mM NaCl, 20 mM HEPES pH 7.5, 0.25% CHAPS; size against gel filtration standard
[2] = target: T1, HTRA1^PD (human HTRA1 protease domain, D161-K379) (human, UniProt Q92743); test: SEC; HTRA1 proteins mixed with Fab15H6.v4 (1:2 molar ratio, 30 min on ice); Superdex 200 Increase 3.2/300; 200 mM NaCl, 20 mM HEPES pH 7.5, 0.25% CHAPS; size against protein standards; details: both partners purified
T1 construct: human HTRA1 protease domain, D161-K379, 24 kDa; His6 tag is TEV or thrombin cleavable; captured by it in SPR; also called wildtype HTRA1^PD; active HTRA1^PD; source: E. coli, purified (Ni-NTA, SEC); not shown: His6, N-terminal, kept

[3] = target: T2, HTRA1^PD/SA (catalytically inactive S328A mutant of the HTRA1 protease domain) (human, UniProt Q92743, S328A); test: as above; details: both partners purified
T2 construct: human HTRA1 protease domain, D161-K379, with S328A; source: E. coli, purified (Ni-NTA, SEC)

[4] = target: T3, HTRA1^FL/SA (catalytically inactive S328A mutant of full-length HTRA1) (human, UniProt Q92743, S328A); test: as above; details: both partners purified
T3 construct: human HTRA1, Q23-P480, with S328A; source: Trichoplusia ni cells, purified from the medium (Ni-NTA, SEC)

[5] = target: T4, HTRA1 LoopA wildtype peptide (Homo sapiens); test: SPR; Fab15H6.v4 (1000 RU) immobilised on a CM5 chip by amine coupling, synthetic LoopA peptides as analytes, single-cycle kinetics, three-fold dilutions from 10 nM (HTRA1 peptides) or 3 μM (HTRA2, HTRA3, HTRA4 peptides); 25 °C, HBS-EP; details: both partners purified
T4 construct: LoopA of human HTRA1, residues 190-201; also called HTRA1-LoopA peptide; LoopA peptide; source: synthetic peptide (Abclonal for SPR; NeoBiolab for the crystal)
T4 chain: RKLPFSKREVPV

[6] = target: T5, HTRA2 LoopA wildtype peptide (Homo sapiens); test: as above; details: both partners purified
T5 construct: LoopA of human HTRA2, residues 168-179; also called LoopA peptide of HTRA2; source: synthetic peptide (Abclonal)
T5 chain: DRHPFLGREVPI

[7] = target: T6, HTRA3 LoopA wildtype peptide (Homo sapiens); test: as above; details: both partners purified
T6 construct: LoopA of human HTRA3, residues 161-172; also called LoopA peptide of HTRA3; source: synthetic peptide (Abclonal)
T6 chain: LRHPLFGRNVPL

[8] = target: T7, HTRA4 LoopA wildtype peptide (Homo sapiens); test: as above; details: both partners purified
T7 construct: LoopA of human HTRA4, residues 188-199; also called LoopA peptide of HTRA4; source: synthetic peptide (Abclonal)
T7 chain: GRLLHGSRLVPV

[9] = target: T8, HTRA2^PD/PDZ (HTRA2 protease/PDZ domain, A134-E458) (human, UniProt O43464); test: SPR; His6-tagged HTRA proteins (about 200 RU) captured with the His-capture kit on a CM5 chip, Fab15H6.v4 as analyte, single-cycle kinetics, three-fold dilutions from 1 nM or 1 μM; absence of binding verified with 3 μM Fab; Biacore S200, 25 °C, HBS-EP; 1:1 Langmuir model; details: both partners purified
T8 construct: human HTRA2 protease and PDZ domains, A134-E458; also called wildtype HTRA2; source: E. coli, purified (Ni-NTA, SEC); not shown: His6, N-terminal, kept

[10] = target: T9, HTRA3^PD/PDZ (HTRA3 protease/PDZ domain, L130-M453) (Homo sapiens, UniProt P83110); test: as above; details: both partners purified
T9 construct: human HTRA3 protease and PDZ domains, L130-M453; also called wildtype HTRA3; source: E. coli, purified (Ni-NTA, SEC); not shown: His6, N-terminal, kept

[11] = target: T1, HTRA1^PD (human HTRA1 protease domain, …); test: as above; details: both partners purified
[12] = target: T1, HTRA1^PD (human HTRA1 protease domain, …); test: SPR; wildtype His6-tagged HTRA1^PD (about 200 RU) captured with the His-capture kit on a CM5 chip; scFv15H6.v4, Fab15H6.v4 and its mutants as analytes, single-cycle kinetics, three-fold dilutions from 10 nM or 1 μM; absence of binding confirmed up to 3 μM; 25 °C, HBS-EP; details: both partners purified

T9 sequence (P83110 130-453): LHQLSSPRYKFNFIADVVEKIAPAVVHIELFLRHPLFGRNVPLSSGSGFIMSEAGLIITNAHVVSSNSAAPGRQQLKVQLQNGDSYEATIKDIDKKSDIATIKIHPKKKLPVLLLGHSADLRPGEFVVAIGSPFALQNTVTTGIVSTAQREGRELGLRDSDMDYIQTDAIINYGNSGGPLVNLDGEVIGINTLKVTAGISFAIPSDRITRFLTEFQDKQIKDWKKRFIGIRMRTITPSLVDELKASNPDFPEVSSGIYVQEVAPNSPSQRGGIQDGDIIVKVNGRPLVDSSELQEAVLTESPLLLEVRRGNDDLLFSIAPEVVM

B1: HTRA1^PD-ΔLoopA (domain or fragment)
chain: not shown
notes: human HTRA1 protease domain, D161-K379, entire LoopA replaced with the beta hairpin motif NG; also called HTRA1-ΔLoopA; HTRA1^PD-ΔLoop mutant; source: E. coli, purified (Ni-NTA, SEC); not shown: His6, N-terminal, kept
stoichiometry N [1]: 3

stoichiometry N [2]: 3 Fab per HTRA1 trimer
stoichiometry N [3]: 3 Fab per HTRA1 trimer
stoichiometry N [4]: 3 Fab per HTRA1 trimer
Kd [5]: 0.77 nM
binding result [6]: no binding (tested: 3 μM)
binding result [7]: no binding (tested: 3 μM)
binding result [8]: no binding (tested: 3 μM)
binding result [9]: no binding (tested: 3 μM Fab)
binding result [10]: no binding (tested: 3 μM Fab)
Kd [11]: 0.12 nM
B2: Fab15H6.v4 (Fab, V domains shown)
VH: EVQLVQSGAEVKKPGASVKVSCKASGYKFTDSEMHWVRQAPGQGLEWIGGVDPETEGAAYNQKFKGRATITRDTSTSTAYLELSSLRSEDTAVYYCTRGYDYDYALDYWGQGTLVTVSS
VL: DIQMTQSPSSLSASVGDRVTITCRASSSVEFIHWYQQKPGKAPKPLISATSNLASGVPSRFSGSGSGTDFTLTISSLQPEDFATYYCQQWSSAPWTFGQGTKVEIK
notes: light chain of Fab15H6.v4; also called the Fab; source: expressed in Complete CRAP media with carbenicillin, purified (Protein G, SP Sepharose)

fold affinity loss against Fab15H6.v4 [12]: 200 fold
B3: Fab15H6.v4 Y100A (Fab, V domains shown)
VH: B2 VH with Y100A
VL: B2 VL
notes: as the heavy chain of m1, with Y100A; as the light chain of m1

binding result [12]: no binding (tested: 3 μM)
B4: Fab15H6.v4 with all eight key paratope residues mutated to alanine (Fab, V domains shown)
VH: B2 VH with T30A, D31A, S32A, D52A, T91A, Y100A, D101A, Y102A
VL: B2 VL
notes: as the heavy chain of m1, with eight paratope residues of the three CDR loops changed to alanine; as the light chain of m1

Kd [12]: 9.4 nM
B5: scFv15H6.v4 (single chain Fv version of Fab15H6.v4) (scFv, V domains shown)
VH: B2 VH
VL: B2 VL
notes: variable domain of the light chain of m1, D1-K106; (GGGGS)4 linker; variable domain of the heavy chain of m1, E1-S119

fold affinity loss against Fab15H6.v4 [12]: 2000 fold
B6: Fab15H6.v4 D52A (Fab, V domains shown)
VH: B2 VH with D52A
VL: B2 VL
notes: as the heavy chain of m1, with D52A; as the light chain of m1

B7: HTRA2^PD/PDZ (HTRA2 protease/PDZ domain, A134-E458) (domain or fragment, human, UniProt O43464 134-458, looked up)
chain: AVPSPPPASPRSQYNFIADVVEKTAPAVVYIEILDRHPFLGREVPISNGSGFVVAADGLIVTNAHVVADRRRVRVRLLSGDTYEAVVTAVDPVADIATLRIQTKEPLPTLPLGRSADVRQGEFVVAMGSPFALQNTITSGIVSSAQRPARDLGLPQTNVEYIQTDAAIDFGNSGGPLVNLDGEVIGVNTMKVTAGISFAIPSDRLREFLHRGEKKNSSSGISGSQRRYIGVMMLTLSPSILAELQLREPSFPDVQHGVLIHKVILGSPAHRAGLRPGDVILAIGEQMVQNAEDVYEAVRTQSQLAVQIRRGRETLTLYVTPEVTE
notes: human HTRA2 protease and PDZ domains, A134-E458; also called wildtype HTRA2; source: E. coli, purified (Ni-NTA, SEC); not shown: His6, N-terminal, kept
stoichiometry N [1]: 3
